Like-named read-outs stand apart in the source and are kept apart here. No end group written: not given here.
Assays:
WT hERG = WT hERG (Homo sapiens, UniProt Q12809); conditions: for Isochronal percentage of hERG block (IhERG tail): terfenadine 100 nM, thioridazine 100 nM, dofetilide 10 nM, chloroquine 1 µM, ketoconazole 3 µM, mean ± SEM
Protocol: (§1) For transient transfection experiments, 24 hr after plating cells out, cells were transiently transfected with 0.5 µg of the F656V hERG construct using Lipofectamine^TM LTX (Invitrogen) according to the manufacturer's instructions. […] Cells were plated onto small sterilized glass coverslips 6 hr after transfection and recordings were made after at least 24 hr incubation at 37°C. Successfully transfected cells were identified using Dynabeads® (Invitrogen). All experimental data for the F656V hERG mutant channel were obtained from cells from a minimum of two transfections.
(§2) Recordings of hERG current (IhERG) and were made using an Axopatch 200 amplifier (Axon Instruments) and a CV201 head‐stage. Between 70%–80% of pipette series resistance was compensated. Voltage‐clamp commands were generated using “WinWCP” (John Dempster, Strathclyde University).
The A(x)1 and B(x)1 values were derived from Equation 1. […] Time courses of IhERG inhibition were fitted using either a single (Equation 3) exponential decay fit of the forms:(3) Y=Y^0-Plateau∗exp-K∗X+Plateau.
IhERG “tail” magnitude was measured relative to instantaneous current at −40 mV elicited by the brief (50 ms) depolarizing step that preceded the voltage command to +20 mV in the absence and presence of the drug. […] We also assessed the effects of drug block on IhERG time constants of deactivation. Tail currents on repolarization to −40mV were fitted using a biexponential to derive the fast τ1 and slow τ2 time constants of deactivation in control and after drug application.

F656V hERG = F656V hERG (Homo sapiens, UniProt Q12809, F656V); assay: Whole-cell patch-clamp recording of IhERG in HEK 293 cells transiently transfected with F656V hERG at 37°C
Protocol: The F656V hERG mutation (Lees‐Miller, Duan, Teng, & Duff, 2000) was generated using the QuickChange® site‐directed mutagenesis kit (Stratagene). In brief, a pair of complementary oligonucleotide primers containing the mutation (forward primer sequence 5′[…]3′ and reverse primer sequence 5′ […]3′, synthesized by Sigma‐Genosys) was used in a PCR reaction (95°C for 1 min, 60°C for 1 min, 68°C for 16 min for 18 cycles) with hERG in a modified pcDNA3.0 vector as a DNA template. A DpnI digest of the PCR mix was then performed for 1 hr at 37°C. Competent DH5α Escherichia coli (Invitrogen) were transformed using standard procedures. The mutation was confirmed by sequencing of the entire open reading frame (Eurofins MWG Operon).
as §1, §2

[1] = 30 nM BeKm-1, absence of erythromycin
[2] = 30 nM BeKm-1 in the maintained presence of 3 µM erythromycin

| Compound | % of IhERG block at steady state (WT hERG) | WT IhERG tail block (WT hERG) | reduction of WT IhERG tail (WT hERG) | time course of WT hERG block (WT hERG) | reduction of F656V IhERG (F656V hERG; [1]) | thalf of F656V IhERG inhibition (F656V hERG; [1]) | block of F656V IhERG at steady state (F656V hERG; [2]) | thalf of F656V IhERG inhibition (F656V hERG; [2]) | Isochronal percentage of hERG block (IhERG tail) (WT hERG; 0 µM erythromycin) | Isochronal percentage of hERG block (IhERG tail) (WT hERG; preincubation with 3 µM erythromycin) | Isochronal percentage of hERG block (IhERG tail) (WT hERG; preincubation with 30 µM erythromycin) | nature of interaction with erythromycin pretreatment on hERG block (WT hERG; pretreatment with low concentrations of erythromycin (≤30 µM)) |
| --- | --- | --- | --- | --- | --- | --- | --- | --- | --- | --- | --- | --- |
| BeKm‐1: peptide (scorpion) toxin, in house Fmoc-synthesized, externally acting hERG blocker (RPTDIKCSESYQCFPVCKSRFGKTNGRCVNGFCDCF; ends and bridges not checked; cysteine pairing not given here; UniProt Q9BKB7 22-57, looked up) | 51.4 ± 4.6% | 46.8 ± 5.0% | 52.2 ± 3.4% | delayed | 74.5 ± 1.6% | 14.2 ± 3.3 s | 69.4 ± 5.1% | 20.7 ± 4.6 s |  |  |  |  |
| CCN(CC)CCCC(C)Nc1ccnc2cc(Cl)ccc12 (stereo not drawn) [Chloroquine, chloroquine] |  |  |  |  |  |  |  |  | 48.4 ± 3.9 (n = 5) % | 70.8 ± 5.3 (n = 5) % | 77.8 ± 0.6 (n = 4) % | strong synergism |

From article PMC7061092 (Physiological Reports, 2020)
